{"source": "patent US20210388105A1", "about": "(ELPISCIENCE SUZHOU BIOPHARMA, published 2021)", "binders": {"B1": {"name": "hu23.H5L5 (antibody, V domains shown)", "VH": "QVQLVQSGAEVKKPGASVKVSCKASGYNLKDTFLHWVRQAPGQGLEWMGRIDPANGNIKYDPKFQGRVTITADTSANTAYMELISLRSEDTAVYYCANSPYYYGSGYRIFDVWGQGTTVTVSS", "VL": "QIVLTQSPATLSLSPGERATLSCSAFSSVNYMHWYQQKPGQAPRLLIYTTSNLASGIPTRFSGSGSGTSYTLTISSLEPEDFAVYYCQQRSTYPFTFGQGTKLEIK", "notes": "humanized c23"}}, "target": "T1, mouse CD39 (full length, on CHOK1-mCD39 cells) (mouse, UniProt P55772 1-510)", "T1 construct": "whole, on cells", "T1 sequence (looked up)": "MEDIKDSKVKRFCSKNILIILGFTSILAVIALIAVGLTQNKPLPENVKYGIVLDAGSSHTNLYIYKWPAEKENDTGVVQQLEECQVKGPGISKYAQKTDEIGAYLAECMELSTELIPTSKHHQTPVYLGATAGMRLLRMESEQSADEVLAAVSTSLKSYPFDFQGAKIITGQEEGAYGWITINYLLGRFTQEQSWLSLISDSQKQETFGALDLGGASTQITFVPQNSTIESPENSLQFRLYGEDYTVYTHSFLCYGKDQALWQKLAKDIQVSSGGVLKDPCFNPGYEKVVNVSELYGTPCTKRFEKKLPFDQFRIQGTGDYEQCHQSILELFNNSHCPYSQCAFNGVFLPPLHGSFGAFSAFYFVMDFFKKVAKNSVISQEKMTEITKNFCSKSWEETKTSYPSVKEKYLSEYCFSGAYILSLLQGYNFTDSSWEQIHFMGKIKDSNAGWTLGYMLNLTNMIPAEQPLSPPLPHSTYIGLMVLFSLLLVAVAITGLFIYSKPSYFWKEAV", "assay": "FACS on CHO-k1/mCD39 cells, MFI [Continued) E]"}
{"binder": "B1", "values": [{"measurement": "binding result", "value": "no binding"}]}
